Reference: patent publication US20140087995A1 (published 2014)
Numbered stars: 1 amine (or outer) side, 2 acyl side, 3 side chain; on linkers, the order of the positions; unused ones are H or OH. Bridge positions count the residues as written; N and C are the ends. * marks the point of attachment. C20 diacid = O=C(O)CCCCCCCCCCCCCCCCCCC(=O)*; γGlu = O=C(O)[C@H](CCC(=O)[*:2])N[*:1]

B1: N^α1-[(4S)-4-carboxy-4-(19-carboxynonadecanoylamino)butanoyl]-[Glu14,Arg17,Pro21,Pro25,Pro28,Pro29,Pro37]-h-amylin (peptide)
peptide: {C20 diacid-γGlu}-KCNTATCATQRLAEFLRHSSPNFGPILPPTNVGSNTP-NH2
modifications: disulfide 2-7
SMILES: CC[C@H](C)[C@H](NC(=O)[C@@H]1CCCN1C(=O)CNC(=O)[C@H](Cc1ccccc1)NC(=O)[C@H](CC(N)=O)NC(=O)[C@@H]1CCCN1C(=O)[C@H](CO)NC(=O)[C@H](CO)NC(=O)[C@H](Cc1c[nH]cn1)NC(=O)[C@H](CCCNC(=N)N)NC(=O)[C@H](CC(C)C)NC(=O)[C@H](Cc1ccccc1)NC(=O)[C@H](CCC(=O)O)NC(=O)[C@H](C)NC(=O)[C@H](CC(C)C)NC(=O)[C@H](CCCNC(=N)N)NC(=O)[C@H](CCC(N)=O)NC(=O)[C@@H](NC(=O)[C@H](C)NC(=O)[C@@H]1CSSC[C@H](NC(=O)[C@H](CCCCN)NC(=O)CC[C@H](NC(=O)CCCCCCCCCCCCCCCCCCC(=O)O)C(=O)O)C(=O)N[C@@H](CC(N)=O)C(=O)N[C@@H]([C@@H](C)O)C(=O)N[C@@H](C)C(=O)N[C@@H]([C@@H](C)O)C(=O)N1)[C@@H](C)O)C(=O)N[C@@H](CC(C)C)C(=O)N1CCC[C@H]1C(=O)N1CCC[C@H]1C(=O)N[C@H](C(=O)N[C@@H](CC(N)=O)C(=O)N[C@H](C(=O)NCC(=O)N[C@@H](CO)C(=O)N[C@@H](CC(N)=O)C(=O)N[C@H](C(=O)N1CCC[C@H]1C(N)=O)[C@@H](C)O)C(C)C)[C@@H](C)O
notes: also called compound 4
B2: N^α1-[(4S)-4-carboxy-4-(19-carboxynonadecanoylamino)butanoyl]-[Glu14,Arg17,Pro21,Pro26]-h-amylin (peptide)
peptide: {C20 diacid-γGlu}-KCNTATCATQRLAEFLRHSSPNFGAPLSSTNVGSNTY-NH2
modifications: disulfide 2-7
SMILES: CC(C)C[C@H](NC(=O)[C@H](CCCNC(=N)N)NC(=O)[C@H](CCC(N)=O)NC(=O)[C@@H](NC(=O)[C@H](C)NC(=O)[C@@H]1CSSC[C@H](NC(=O)[C@H](CCCCN)NC(=O)CC[C@H](NC(=O)CCCCCCCCCCCCCCCCCCC(=O)O)C(=O)O)C(=O)N[C@@H](CC(N)=O)C(=O)N[C@@H]([C@@H](C)O)C(=O)N[C@@H](C)C(=O)N[C@@H]([C@@H](C)O)C(=O)N1)[C@@H](C)O)C(=O)N[C@@H](C)C(=O)N[C@@H](CCC(=O)O)C(=O)N[C@@H](Cc1ccccc1)C(=O)N[C@@H](CC(C)C)C(=O)N[C@@H](CCCNC(=N)N)C(=O)N[C@@H](Cc1c[nH]cn1)C(=O)N[C@@H](CO)C(=O)N[C@@H](CO)C(=O)N1CCC[C@H]1C(=O)N[C@@H](CC(N)=O)C(=O)N[C@@H](Cc1ccccc1)C(=O)NCC(=O)N[C@@H](C)C(=O)N1CCC[C@H]1C(=O)N[C@@H](CC(C)C)C(=O)N[C@@H](CO)C(=O)N[C@@H](CO)C(=O)N[C@H](C(=O)N[C@@H](CC(N)=O)C(=O)N[C@H](C(=O)NCC(=O)N[C@@H](CO)C(=O)N[C@@H](CC(N)=O)C(=O)N[C@H](C(=O)N[C@@H](Cc1ccc(O)cc1)C(N)=O)[C@@H](C)O)C(C)C)[C@@H](C)O
notes: also called compound 7
B3: N^α1-[(4S)-4-carboxy-4-(19-carboxynonadecanoylamino)butanoyl]-[Glu14,Arg17,Pro21,Pro26,Pro37]-h-amylin (peptide)
peptide: {C20 diacid-γGlu}-KCNTATCATQRLAEFLRHSSPNFGAPLSSTNVGSNTP-NH2
modifications: disulfide 2-7
SMILES: CC(C)C[C@H](NC(=O)[C@H](CCCNC(=N)N)NC(=O)[C@H](CCC(N)=O)NC(=O)[C@@H](NC(=O)[C@H](C)NC(=O)[C@@H]1CSSC[C@H](NC(=O)[C@H](CCCCN)NC(=O)CC[C@H](NC(=O)CCCCCCCCCCCCCCCCCCC(=O)O)C(=O)O)C(=O)N[C@@H](CC(N)=O)C(=O)N[C@@H]([C@@H](C)O)C(=O)N[C@@H](C)C(=O)N[C@@H]([C@@H](C)O)C(=O)N1)[C@@H](C)O)C(=O)N[C@@H](C)C(=O)N[C@@H](CCC(=O)O)C(=O)N[C@@H](Cc1ccccc1)C(=O)N[C@@H](CC(C)C)C(=O)N[C@@H](CCCNC(=N)N)C(=O)N[C@@H](Cc1c[nH]cn1)C(=O)N[C@@H](CO)C(=O)N[C@@H](CO)C(=O)N1CCC[C@H]1C(=O)N[C@@H](CC(N)=O)C(=O)N[C@@H](Cc1ccccc1)C(=O)NCC(=O)N[C@@H](C)C(=O)N1CCC[C@H]1C(=O)N[C@@H](CC(C)C)C(=O)N[C@@H](CO)C(=O)N[C@@H](CO)C(=O)N[C@H](C(=O)N[C@@H](CC(N)=O)C(=O)N[C@H](C(=O)NCC(=O)N[C@@H](CO)C(=O)N[C@@H](CC(N)=O)C(=O)N[C@H](C(=O)N1CCC[C@H]1C(N)=O)[C@@H](C)O)C(C)C)[C@@H](C)O
notes: also called compound 5
B4: N^α1-[(4S)-4-carboxy-4-(19-carboxynonadecanoylamino)butanoyl]-[Glu14,Arg17,Pro21,Pro25,Pro28,Pro29]-h-amylin (peptide)
peptide: {C20 diacid-γGlu}-KCNTATCATQRLAEFLRHSSPNFGPILPPTNVGSNTY-NH2
modifications: disulfide 2-7
SMILES: CC[C@H](C)[C@H](NC(=O)[C@@H]1CCCN1C(=O)CNC(=O)[C@H](Cc1ccccc1)NC(=O)[C@H](CC(N)=O)NC(=O)[C@@H]1CCCN1C(=O)[C@H](CO)NC(=O)[C@H](CO)NC(=O)[C@H](Cc1c[nH]cn1)NC(=O)[C@H](CCCNC(=N)N)NC(=O)[C@H](CC(C)C)NC(=O)[C@H](Cc1ccccc1)NC(=O)[C@H](CCC(=O)O)NC(=O)[C@H](C)NC(=O)[C@H](CC(C)C)NC(=O)[C@H](CCCNC(=N)N)NC(=O)[C@H](CCC(N)=O)NC(=O)[C@@H](NC(=O)[C@H](C)NC(=O)[C@@H]1CSSC[C@H](NC(=O)[C@H](CCCCN)NC(=O)CC[C@H](NC(=O)CCCCCCCCCCCCCCCCCCC(=O)O)C(=O)O)C(=O)N[C@@H](CC(N)=O)C(=O)N[C@@H]([C@@H](C)O)C(=O)N[C@@H](C)C(=O)N[C@@H]([C@@H](C)O)C(=O)N1)[C@@H](C)O)C(=O)N[C@@H](CC(C)C)C(=O)N1CCC[C@H]1C(=O)N1CCC[C@H]1C(=O)N[C@H](C(=O)N[C@@H](CC(N)=O)C(=O)N[C@H](C(=O)NCC(=O)N[C@@H](CO)C(=O)N[C@@H](CC(N)=O)C(=O)N[C@H](C(=O)N[C@@H](Cc1ccc(O)cc1)C(N)=O)[C@@H](C)O)C(C)C)[C@@H](C)O
notes: also called compound 6

Assays:
[1] = biological target: T1, human amylin receptor (amylin 3(a) receptor: human calcitonin receptor with RAMP-3) (human, UniProt P30988 25-474; O60896 24-148); experiment: cell-based or functional assay
T1 sequence (looked up) 1: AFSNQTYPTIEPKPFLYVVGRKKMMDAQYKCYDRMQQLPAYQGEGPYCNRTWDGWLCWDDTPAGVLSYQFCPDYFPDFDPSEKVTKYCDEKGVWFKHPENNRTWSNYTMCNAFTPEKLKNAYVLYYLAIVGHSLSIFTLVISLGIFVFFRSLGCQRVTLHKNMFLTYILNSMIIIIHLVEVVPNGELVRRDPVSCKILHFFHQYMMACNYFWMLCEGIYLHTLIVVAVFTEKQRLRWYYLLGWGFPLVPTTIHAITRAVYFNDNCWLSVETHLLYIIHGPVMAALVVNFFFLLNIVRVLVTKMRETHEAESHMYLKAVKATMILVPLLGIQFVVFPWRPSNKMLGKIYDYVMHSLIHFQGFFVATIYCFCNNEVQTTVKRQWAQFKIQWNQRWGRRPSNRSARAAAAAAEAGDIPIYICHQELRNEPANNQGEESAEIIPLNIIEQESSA
T1 sequence (looked up) 2: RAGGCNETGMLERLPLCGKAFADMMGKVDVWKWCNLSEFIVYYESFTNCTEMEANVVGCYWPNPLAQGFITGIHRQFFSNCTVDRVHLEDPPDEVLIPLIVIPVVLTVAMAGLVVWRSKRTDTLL

[2] = biological target: T2, human calcitonin receptor (human, UniProt P30988 25-474); experiment: cell-based or functional assay
T2 sequence (looked up): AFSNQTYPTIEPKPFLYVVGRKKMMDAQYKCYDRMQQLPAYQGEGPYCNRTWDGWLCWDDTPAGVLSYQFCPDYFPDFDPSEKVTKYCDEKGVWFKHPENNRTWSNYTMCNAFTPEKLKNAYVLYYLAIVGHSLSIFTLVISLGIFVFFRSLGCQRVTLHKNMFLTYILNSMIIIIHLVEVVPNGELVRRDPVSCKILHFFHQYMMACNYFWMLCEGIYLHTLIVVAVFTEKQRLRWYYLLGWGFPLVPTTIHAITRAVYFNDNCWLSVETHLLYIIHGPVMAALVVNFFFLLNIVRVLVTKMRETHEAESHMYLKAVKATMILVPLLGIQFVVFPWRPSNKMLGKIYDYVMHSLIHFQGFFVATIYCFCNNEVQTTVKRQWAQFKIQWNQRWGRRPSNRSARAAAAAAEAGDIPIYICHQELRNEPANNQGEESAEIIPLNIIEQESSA

[3] = biological target: T1, human amylin receptor (amylin 3(a) …); experiment: SPA competition, displacement of 125I-rat amylin from membranes of BHK cells with the human amylin 3(a) receptor
Protocol: The binding assay was performed using scintillation proximity assay (SPA) beads (RPNQ0001) from PerkinElmer and cell membranes from the Amylin 3(a)/CRE-luc cells (as described in Assay (II)) were used. Membranes were prepared in the following way; the cells were rinsed with PBS and incubated with Versene for approximately 5 min before harvesting. The cells were flushed with PBS and the cell-suspension was centrifuged for 5 min at 1000 rpm. Cells were homogenized (ultrathurrax) in a buffer containing 20 mM Na-HEPES and 10 mM EDTA (pH 7.4) and centrifuged at 20.000 rpm for 15 min. The resulting pellet was resuspended, homogenized and centrifuged (20.000 rpm, 15 min) in a buffer containing 20 mM Na-HEPES and 0.1 mM EDTA (pH 7.4, buffer 2). The resulting pellet was resuspended in buffer 2 and protein concentration was measured (BCA protein Assay, Pierce). The homogenate was kept cold during the whole procedure. The membranes were kept at −80° C. until use. The assay was performed in a 384 well Optiplate (PerkinElmer) in a total volume of 40 ul. Membranes were mixed with SPA beads. Final concentration of membranes 35 ng/μL final and SPA beads was 0.05 mg/well. Test-compounds were dissolved in DMSO and further diluted in assay buffer (50 mM Hepes, pH 7.4, 1 mM CaCl2, 5 mM MgCl₂, 0.1% OA and 0.02% Tween20). […] The final mixture was incubated with shaking at 400 rpm for 120 min at 25° C. prior to centrifugation (1500 rpm, 10 min). Samples were analyzed on TopCounter™ (Packard). The IC₅₀ was calculated using (one site binding competition analysis) GraphPad Prism5 as a measure of receptor affinity.

Binder	hAmylin-R funct. EC50 [1]	Ratio hCT/hAmylin funct. [2]	hCTR funct. EC50 [2]	IC50 [3]
B1	0.06 nM	1.2	0.07 nM	0.321 nM
B2	0.255 nM	4.5	1.16 nM	0.674 nM
{C20 diacid-γGlu}-KCNTATCATQRLAEFLRHSSPNFGAILPSTNVGSETY-NH2 (disulfide 2-7, also called compound 33)	0.243 nM	2.2	0.528 nM	0.915 nM
B3	0.162 nM	1	0.16 nM	0.374 nM
B4	0.128 nM	5.7	0.729 nM	0.996 nM
